The target in the test is T1, mouse insulin receptor (mouse, UniProt P15208 28-1372).
T1 construct: whole, on cells; also called muINSR; mINSR
The test is described as follows: FACS on mouse INSR; conditions not given on the sheet.

B1: Ab040 (antibody, V domains shown)
VH: EVQLLESGGGLVQPGGSLRLSCAASGFTFSSYWMSWVRQAPGKGLEWVAVISKDGSSTDYAHSVKGRFTISRDNSKNTLYLQMNSLRAEDTAVYYCARDRDWIPGDVWGQGTLVTVSS
VL: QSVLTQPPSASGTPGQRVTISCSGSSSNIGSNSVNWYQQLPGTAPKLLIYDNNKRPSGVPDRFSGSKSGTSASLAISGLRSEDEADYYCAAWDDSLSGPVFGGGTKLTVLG
notes: also called XPA.015.077
As for B1, the binding result is reported as “binds”.

B2: Ab038 (antibody, V domains shown)
VH: EVQLLESGGGLVQPGGSLRLSCAASGFTFSNYAMTWVRQAPGKGLEWVSYIHAGGGTHYANSVKGRFTISRDNSKNTLYLQMNSLRAEDTAVYYCARDLHWEGWGLGFDYWGQGTLVTVSS
VL: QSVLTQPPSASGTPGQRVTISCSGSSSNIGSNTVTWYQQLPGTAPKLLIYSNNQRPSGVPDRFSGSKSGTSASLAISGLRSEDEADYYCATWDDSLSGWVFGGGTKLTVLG
notes: also called XPA.015.065
Regarding B2, the binding result is listed as “binds”.

B3: Ab042 (antibody, V domains shown)
VH: EVQLLESGGGLVQPGGSLRLSCAASGFTFSNYAMTWVRQAPGKGLEWVSYIHAGGGTHYANSVKGRFTISRDNSKNTLYLQMNSLRAEDTAVYYCARDLHWEGWGLGFDYWGQGTLVTVSS
VL: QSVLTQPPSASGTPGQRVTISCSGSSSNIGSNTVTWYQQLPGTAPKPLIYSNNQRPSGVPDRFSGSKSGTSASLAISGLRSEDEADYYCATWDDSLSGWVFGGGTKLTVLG
notes: also called XPA.015.086
Turning to B3, the binding result is on record as “no binding”.

B4: Ab002 (antibody, V domains shown)
VH: EVKLVESEEGLVKPGGSLKLSCAASGFTFSNYAMSWVRQTPEKRLEWVATISDGGHYTYYSDTIKGRFTISRDNAKNNLFLQLSHLKSEDTAIYYCARGTVFDYWGQGTTLTVSS
VL: DIQMTQTTSSLSASLGDRVTISCRASQDISNYLNWYQQKPDGTVKLLIYYTSRLHSGVPSRFSGSGSGTDYSLTISNLEPEDIATFYCQQYSDLPYTFGGGTKLEIKR
notes: also called XPA.015.190
Regarding B4, the binding result was “no binding”.

B5: Ab014 (antibody, V domains shown)
VH: EVQLLESGGGLVQPGGSLRLSCAASGFTFSNAWMSWVRQAPGKGLEWVSAISGSGGSTYYADSVKGRFTISRDNSKNTLYLQMNSLRAEDTAVYYCAAPTVPYYYYGMDVWGQGTLVTVSS
VL: QSVLTQPPSASGTPGQRVTISCSGCSSNIGNNAVNWYQQLPGTAPKLLIYRSDQRLAGVPDRFSGSKSGTSASLAISGLRSEDEADYYCQSYDSSLIGHWVFGGGTKLTVLG
notes: also called XPA.015.158
Regarding B5, the binding result is reported as “binds”.

B6: Ab039 (antibody, V domains shown)
VH: EVQLLESGGGLVQPGGSLRLSCAASGFTFSSYWMSWVRQAPGKGLEWVSGISGSGGYTSYADSVKGRFTISRDNSKNTLYLQMNSLRAEDTAVYYCAKDSSDWYINSWGQGTLVTVSS
VL: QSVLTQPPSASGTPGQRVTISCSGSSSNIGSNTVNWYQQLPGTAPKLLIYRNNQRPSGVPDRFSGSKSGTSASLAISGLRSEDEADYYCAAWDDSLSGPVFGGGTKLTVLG
notes: also called XPA.015.074
For the molecule B6, the binding result is “binds”.

B7: Ab032 (antibody, V domains shown)
VH: EVQLLESGGGLVQPGGSLRLSCAASGFTFSNYAMGWVRQAPGKGLEWVSSISGSGGTTYYADSVKGRFTISRDNSKNTLYLQMNSLRAEDTAVYYCARHKGLQPLDYWGQGTLVTVSS
VL: QSVLTQPPSASGTPGQRVTISCSGSISNIGSNYVSWYQQLPGTAPKLLIYGNSNRPSGVPDRFSGSKSGTSASLAISGLRSEDEADYYCAAWDDSLSPHVVFGGGTKLTVLG
notes: also called XPA.015.093
As for B7, the binding result is “binds”.

B8: Ab006 (antibody, V domains shown)
VH: EVQLLESGGGLVQPGGSLRLSCAASGFTFSNYAMGWVRQAPGKGLEWVSSISGSGGTTYYADSVKGRFTISRDNSKNTLYLQMNSLRAEDTAVYYCARHKGLQPLDYWGQGTLVTVSS
VL: QSVLTQPPSASGTPGQRVTISCSGSISNIGSNYVSWYQQLPGTAPKLLIYGNSNRPSGVPDRFSGSKSGTSASLAISGLRSEDEADYYCAAWDDSLSPHVVFGGGTKLTVLG
notes: also called XPA.015.013
For B8, the binding result is reported as “binds”.

B9: Ab036 (antibody, V domains shown)
VH: EVQLLESGGGLVQPGGSLRLSCAASGFTFSNYAMGWVRQAPGKGLEWVSSISGSGGTTYYADSVKGRFTISRDNSKNTLYLQMNSLRAEDTAVYYCARHKGLQPLDYWGQGTLVTVSS
VL: QSVLTQPPSASGTPGQRVTISCSGSSSNIGGNSVHWYQQLPGTAPKLLIYGNSNRPSGVPDRFSGSKSGTSASLAISGLRSEDEADYYCAAWDDSLSPHVVFGGGTKLTVLG
notes: also called XPA.015.047
In the case of B9, the binding result was “binds”.

B10: Ab011 (antibody, V domains shown)
VH: EVQLLESGGGLVQPGGSLRLSCAASGFTFSNYAMGWVRQAPGKGLEWVSSISGSGGTTYYADSVKGRFTISRDNSKNTLYLQMNSLRAEDTAVYYCARHKGLQPLDYWGQGTLVTVSF
VL: QSVLTQPPSASGTPGQRVTISCSGSISNIGSNYVSWYQQLPGTAPKLLIYGNSNRPSGVPDRFSGSKSGTSASLAISGLRSEDEADYYCAAWDDSLSPHVVFGGGTKLTVLG
notes: also called XPA.015.085
For the molecule B10, the binding result is listed as “binds”.

B11: Ab009 (antibody, V domains shown)
VH: EVQLLESGGGLVQPWGSLRLSCAASGFTFSNYAMGWVRQAPGKGLEWVSSISGSGGTTYYADSVKGRFTISRDNSKNTPYLQMNSLRAEDTAVYYCARHKGLQPLDYWGQGTLVTVSS
VL: QSVLTQPPSASGTPGQRVTISCSGSISNIGSNYVSWYQQLPGTAPKLLIYGNSNRPSGVPDRFSGSKSGTSASLAISGLRSEDEADYYCAAWDDSLSPHVVFGGGTKLTVLG
notes: also called XPA.015.075
In the case of B11, the binding result is reported as “binds”.

B12: Ab026 (antibody, V domains shown)
VH: EVQLLESGGGLVQPGGSLRLSCAASGFTFSNYVISWVRQAPGKGLEWVSAISGSGGSTFYPDSVKGRFTISRDNSKNTLYLQMNSLRAEDTAMYYCARVGLSGWYYFDYWGQGTLVTVSS
VL: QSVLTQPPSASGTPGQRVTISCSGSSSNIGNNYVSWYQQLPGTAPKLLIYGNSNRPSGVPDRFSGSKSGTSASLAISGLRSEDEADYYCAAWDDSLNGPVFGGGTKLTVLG
notes: also called XPA.015.026
B12: the binding result is given as “no binding”.

B13: Ab017 (antibody, V domains shown)
VH: EVQLLESGGGLVQPGGSLRLSCAASGFTFSSYSMNWVRQAPGKGLEWVSVIYSGDSTYYADSVKGRFTISRDNSKNTLYLQMNSLRAEDTAVYYCARQVRDGDYGDWFDPWGQGTLVTVSS
VL: QSVLTQPPSASGTPGQRVTISCTGSSSNIGAGYDVHWYQQLPGTAPKLLIYGNSNRPSGVPDRFSGSKSGTSASLAISGLRSEDEADYYCAAWDDSLSGWVFGGGTKLTVLG
notes: also called XPA.015.017
Consider B13, for which the binding result is on record as “binds”.

B14: Ab030 (antibody, V domains shown)
VH: EVQLLESGGGLVQPGGSLRLSCAASGFTFSSYSMNWVRQAPGKGLEWVSAISGSGGSTYYADSVKGRFTISRDNSKNTLYLQMNSLRAEDTAVYYCARDSWELLGYDAFDIWGQGTLVTVSS
VL: QSVLTQPPSASGTPGQRVTISCTGSSSNIGAGYDVHWYQQLPGTAPKLLIYDNNKRPSGVPDRFSGSKSGTSASLAISGLRSEDEADYYCASWDDSHLHVLFGGGTKLTVLG
notes: also called XPA.015.036
Take B14: the binding result is listed as “binds”.

B15: Ab018 (antibody, V domains shown)
VH: EVQLLESGGGLVQPGGSLRLSCAASGFTFSSYWMSWVRQAPGKGLEWVSGISGSGGYIHYADSVKGRFTISRDDSKNTLYLQMNSLRAEDTAVYYCAREGSGWLVDQWGQGTLVTVSS
VL: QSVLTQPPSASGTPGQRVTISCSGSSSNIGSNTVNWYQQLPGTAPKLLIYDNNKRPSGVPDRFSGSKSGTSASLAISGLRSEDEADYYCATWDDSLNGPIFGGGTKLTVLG
notes: also called XPA.015.139
Turning to B15, the binding result was “binds”.

B16: Ab031 (antibody, V domains shown)
VH: EVQLLESGGGLVQPGGSLRLSCAASGFTFSSNYMSWVRQAPGKGLEWVSSISGGSTYYADSRKGRFTISRDNSKNTLYLQMNSLRAEDTAVYYCARLDWSSGAFDIWGQGTLVTVSS
VL: QSVLTQPPSASGTPGQRVTISCSGRSSNIGYNYVSWYQQLPGTAPKLLIYGNSNRPSGVPDRFSGSKSGTSASLAISGLRSEDEADYYCAAWDDSLSGPVFGGGTKLTVLG
notes: printed on the sheet as Ab031` with a stray mark; also called XPA.015.037
B16: the binding result is “no binding”.

B17: Ab024 (antibody, V domains shown)
VH: EVQLLESGGGLVQPGGSLRLSCAASGFTFSDYYMSWIRRAPGKGLEWVSRISWNSGSIGYADSLKGRFTISRDNSKNTLYLQMNSLRAEDTAVYYCARERGYGYDYWGQGTLVTVSS
VL: QSVLTQPPSASGTPGQRVTISCSGTSSNLGSHTVSWYQQLPGTAPKLLIYDNNERPSGVPDRFSGSKSGTSASLAISGLRSEDEADYYCAAWDDSLSAWVFGGGTKLTVLG
notes: also called XPA.015.022
As for B17, the binding result is “no binding”.

The values are drawn from patent US20160009800A1 (XOMA US, published 2016).
